Blank lines part the entries; values can stand above or below the binder they belong to. Bridge positions count the residues as written; N and C are the ends. Ends that are not written are not given here.
Legend:
[1] = target: T1, Mic60solΔLBS1 (Chaetomium thermophilum Mic60sol with an internal deletion of LBS1) (Chaetomium thermophilum); test: native gel or EMSA; blue native (BN)-PAGE of purified Mic60 constructs; conditions: both partners purified
T1 chain: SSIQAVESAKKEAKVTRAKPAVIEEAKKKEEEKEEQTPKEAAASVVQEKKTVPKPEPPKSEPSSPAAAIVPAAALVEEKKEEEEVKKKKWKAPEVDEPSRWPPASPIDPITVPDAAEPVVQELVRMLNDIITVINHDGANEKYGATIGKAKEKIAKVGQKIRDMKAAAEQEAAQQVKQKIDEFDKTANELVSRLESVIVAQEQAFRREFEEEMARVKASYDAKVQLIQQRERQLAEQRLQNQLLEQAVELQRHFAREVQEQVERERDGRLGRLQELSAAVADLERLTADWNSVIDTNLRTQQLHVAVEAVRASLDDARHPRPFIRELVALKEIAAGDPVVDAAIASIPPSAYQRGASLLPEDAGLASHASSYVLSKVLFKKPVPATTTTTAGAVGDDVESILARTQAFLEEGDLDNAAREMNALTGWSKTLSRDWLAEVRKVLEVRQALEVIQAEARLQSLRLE

[2] = target: T2, Mic60sol (Chaetomium thermophilum Mic60, residues 208–691) (Chaetomium thermophilum); test: ITC; about 450 μM Mic19 construct in the syringe titrated into about 40 μM Mic60 construct in the cell; 10 °C; 20 mM HEPES/NaOH pH 7.5, 150 mM NaCl; untagged proteins; conditions: both partners purified
T2 construct: Mic60 of Chaetomium thermophilum, UniProt G0SHY5, residues 208-691; codon-optimized synthetic cDNA in a modified pET28a; source: E. coli BL21 DE3, purified (Ni-NTA, His6 tag cleaved with PreScission protease, size-exclusion chromatography); not shown: His6, N-terminal, cleaved

- stoichiometry N [1]: 2
B1: Mic60solΔLBS1 (Chaetomium thermophilum Mic60sol with an internal deletion of LBS1) (domain or fragment)
chain: T1 chain
modifications: His6 tag removed; outer limits 208-691 printed; LBS1 = 563-582 deduced from the printed truncations ending at 562 (no LBS) and 582 (LBS1 kept); check residues lie in the deleted segment and only …

- Kd [2]: 390 nM
- stoichiometry N [2]: 0.77 ± 0.01
Binder: RPLPESVEKARSEVVRCLREHDRRPLNCWQEVEAFKEEVRKLEKGWVDK (domain or fragment, disulfide 17-28) [isolated CHCH domain of Mic19 (Chaetomium thermophilum)]
